We go through two molecules from publication PMC4612572.

Assay [1] has as its target p766-Gravin (human (endogenous in U2OS; cells of Figure 2E-H not stated)) (UniProt Q02952). Description: proximity ligation; in situ PLA in U2OS cells stably expressing the mother centriole marker myc-centriolin; signal at the mother spindle pole relative to the daughter spindle pole.
Assay [2] has the same target. Description: proximity ligation; in situ PLA with antibodies to p766-Gravin and to Aurora A or Plk1 in fixed cells at different stages of the cell cycle; integrated signal per cell normalised to interphase cells; n = 3 experiments.
The target of assay [3] is Gravin (human (endogenous in HEK293)) (UniProt Q02952).

In assay [1], “polo-like kinase 1 (from UniProt P53350 1-603) (enzyme)” gave a fold PLA signal, mother against daughter spindle pole of 2.35 fold. For the same molecule, the fold PLA signal, metaphase against interphase cells in assay [2] turned out to be 10.3 fold.

B1: Aurora A (enzyme)
chain: MDRSKENCISGPVKATAPVGGPKRVLVTQQFPCQNPLPVNSGQAQRVLCPSNSSQRIPLQAQKLVSSHKPVQNQKQKQLQATSVPHPVSRPLNNTQKSKQPLPSAPENNPEEELASKQKNEESKKRQWALEDFEIGRPLGKGKFGNVYLAREKQSKFILALKVLFKAQLEKAGVEHQLRREVEIQSHLRHPNILRLYGYFHDATRVYLILEYAPLGTVYRELQKLSKFDEQRTATYITELANALSYCHSKRVIHRDIKPENLLLGSAGELKIADFGWSVHAPSSRRTTLCGTLDYLPPEMIEGRMHDEKVDLWSLGVLCYEFLVGKPPFEANTYQETYKRISRVEFTFPDFVTEGARDLISRLLKHNPSQRPMLREVLEHPWITANSSKPSNCQNKESASKQS
With B1, the fold PLA puncta, mother against daughter spindle pole in assay [1] worked out at 4.16 fold. The molecule further showed a Kemptide (300 uM) phosphorylation (32P incorporation) in Gravin immune complexes isolated from mitotic lysates; share blocked by the Aurora A inhibitor VX-680 in assay [3] of 33.5%. In assay [2], this molecule returned a fold PLA signal, metaphase against interphase cells of 3.86 fold.
